biological target: SARS-CoV-2 Spike S1, wildtype (Table 13) (SARS-CoV-2, UniProt P0DTC2 16-685)

Binder | Kd [nM]
N-612-014 (antibody, V domains shown) VH: EVQLVESGGGLVQPGGSLRLSCAASGFTFSSYAMTWVRQAPGKGLEWVSYISGSGGGTYYADSVKGRFTISRDNSKNTLYLQMNSLRAEDTAVYYCARDRWASGWLAFDVWGQGTLVTVSS VL: not shown | 11.4
N-612-004 (antibody, V domains shown) VH: EVQLVESGGGLVQPGGSLRLSCAASGFTFSSYYMHWVRQAPGKGLEWVSAISGSGGYTYYADSVKGRFTISRDNSKNTLYLQMNSLRAEDTAVYYCARDRDHAYDWGFDVWGQGTLVTVSS VL: DIQMTQSPSSLSASVGDRVTITCQASQDISNYLNWYQQKPGKAPKLLIYDASNLETGVPSRFSGSGSGTDFTFTISSLQPEDIATYYCQQWADWPLTFGQGTKVEIK | 0.62
N-612-056 (antibody, V domains shown) VH: not shown VL: DIQMTQSPSSLSASVGDRVTITCQASQDISNYLNWYQQKPGKAPKLLIYDASNLETGVPSRFSGSGSGTDFTFTISSLQPEDIATYYCQQDAGTPLTFGQGTKVEIK | 4.5
N-612-017 (antibody, V domains shown) VH: EVQLVESGGGLVQPGGSLRLSCAASGFTFSSYAMHWVRQAPGKGLEWVSAIWGSGSNTYYADSVKGRFTISRDNSKNTLYLQMNSLRAEDTAVYYCARGRDLAAFTKTAFDVWGQGTLVTVSS VL: not shown | 12
